The values below come from patent US20100172925A1, “HLA-A2-RESTRICTED T-CELL EPITOPES OF THE RESPIRATORY SYNCYTIAL VIRUS FUSION PROTEIN AS PEPTIDE-BASED VACCINES” (priority 2009, published 2010).

In one assay the target is HLA-A*0201 molecule on human T2 cells (human). The experiment in a line: T2-based binding assay, flow cytometry with FITC anti-HLA-A2. A general note: Flow cytometry measures light scatter and fluorescence of single cells or particles in a stream.
With KIMTSKTDV (modifications not checked) [RSV F peptide No. 17 (F417-425)], the MFI ratio (ratio to the negative control) is 0.91.

For a further assay the target is unchanged. In words: T2 cell-stabilization assay, flow cytometry with FITC anti-HLA-A2, peptide 50 µg/mL.
For the molecule LLSLIAVGL (modifications not checked) [RSV F peptide No. 24 (F561-569)], the MFI ratio (fold of the negative control) is 1.5.
For AITTILAAV (modifications not checked) [RSV F peptide No. 3 (F33-41)], the MFI ratio (fold of the negative control) is 1.5.
On the same count and under the same terms, for VILLSLIAV (modifications not checked) [RSV F peptide No. 23 (F559-567)] the value was 1.5.
As to KVLDLKNYI (modifications not checked) [RSV F peptide No. 13 (F214-222)], the MFI above baseline (% higher than the baseline) came to 10.
The same measure, in the same setting: for ALLSTNKAV (modifications not checked) [RSV F peptide No. 8 (F193-201)] the value was 10.
Turning to LLSTNKAVV (modifications not checked) [RSV F peptide No. 9 (F194-202)], the MFI ratio (fold of the negative control) came out at 1.5.
On the same count and under the same terms, as for KLMSNNVQI (modifications not checked) [RSV F peptide No. 15 (F295-303)], the figure is 1.5.
As to SVGNTLYYV (modifications not checked) [RSV F peptide No. 18 (F474-482)], the MFI above baseline (% higher than the baseline) amounted to 10.
Same read-out and setting: as for SLIAVGLLL (modifications not checked) [RSV F peptide No. 25 (F563-571)], the figure is 10.
Turning to YMLTNSELL (modifications not checked) [RSV F peptide No. 14 (F273-281)], the MFI ratio (fold of the negative control) amounted to 1.5.
On the same count and under the same terms, for LMSNNVQIV (modifications not checked) [RSV F peptide No. 16 (F296-304)] the value was 1.5.
With FLLGVGSAI (modifications not checked) [RSV F peptide No. 6 (F163-171)], the MFI above baseline (% higher than the baseline) stood at 10.

Another assay has the same target.
Test: not given
As to TLLLWVLLL (modifications not checked) [RSV F peptide No. 1 (F5-13)], the MFI above baseline (% higher than the baseline) came out at 10.
